B1: Lysozyme C, P61626 (parent)
chain: MKALIVLGLVLLSVTVQGKVFERCELARTLKRLGMDGYRGISLANWMCLAKWESGYNTRATNYNAGDRSTDYGIFQINSRYWCNDGKTPGAVNACHLSCSALLQDNIADAVACAKRVVRDPQGIRAWVAWRNRCQNRDVRQYVQGCGV

Variants of: B1
Conditions: Homo sapiens, pH 2.7, Thermal, DSC, glycine 0.05 M, reversible: yes, structure 1LZ1, whole UniProt chain shown

Variant	Tm [°C]	change of melting temperature, mutant - wild type (higher = more stable) [°C]	heat capacity change of unfolding [kcal/mol/K]	unfolding enthalpy (calorimetric) [kcal/mol]	unfolding enthalpy (van 't Hoff) [kcal/mol]	ddG of mutation (higher = less stable) (64.9 °C) [kcal/mol]	heat capacity change of unfolding (64.9 °C) [kcal/mol/K]
MKALIVLGLVLLSVTVQGKVFERCELARTLKRLGMDGYRGISLANWMCLAKWESGYNTRATNYNAGDRSTDYGIFQVNSRYWCNDGKTPGAVNACHLSCSALLQDNIADAVACAKRVVRDPQGIRAWVAWRNRCQNRDVRQYVQGCGV [I77V]	61.5	-3.4	1.2	110	117		
MKALIVLGLVLLSVTVQGKVFERCELARTLKRLGMDGYRGVSLANWMCLAKWESGYNTRATNYNAGDRSTDYGIFQINSRYWCNDGKTPGAVNACHLSCSALLQDNIADAVACAKRVVRDPQGIRAWVAWRNRCQNRDVRQYVQGCGV [I41V]	63.8	-1.1	1.39	112	120	0.36	1.39
MKALIVLGLVLLSVTVQGKVFERCELARTLKRLGMDGYRGISLANWMCLAKWESGYNTRATNYNAGDRSTDYGIFQINSRYWCNDGKTPGAVNACHLSCSALLQDNIADAVACAKRVVRDPQGVRAWVAWRNRCQNRDVRQYVQGCGV [I124V]	62.7	-2.2	1.41	109	114	0.72	1.41
MKALIVLGLVLLSVTVQGKVFERCELARTLKRLGMDGYRGISLANWMCLAKWESGYNTRATNYNAGDRSTDYGVFQINSRYWCNDGKTPGAVNACHLSCSALLQDNIADAVACAKRVVRDPQGIRAWVAWRNRCQNRDVRQYVQGCGV [I74V]	61.3	-3.6	1.34	114	117	1.2	1.34
MKALIVLGLVLLSVTVQGKVFERCELARTLKRLGMDGYRGISLANWMCLAKWESGYNTRATNYNAGDRSTDYGIFQINSRYWCNDGKTPGAVNACHLSCSALLQDNVADAVACAKRVVRDPQGIRAWVAWRNRCQNRDVRQYVQGCGV [I107V]	63.5	-1.4	1.91	116	122	0.48	1.91

Reference: FireProtDB (doi:10.1006/jmbi.1995.0599)
